The values that follow come from patent publication US20200385482A1 (Dana-Farber, published 2020).

Test [1] deals with T1, human PD-L1 (hPD-L1) expressed on transfected 300.19 cells (human, UniProt Q9NZQ7 19-290).
T1 construct: whole, on cells; also called B7H1
Kind of test: FACS, hPD-L1 300.19 cells, assay 1, Ab 1 ug/ml. The procedure: (§1) Binding analysis of huPD-L1 antibodies were performed using PD-L1-expressing cells. […] GF1538 and GF1757 antibodies were used as controls: GF1538 is a humanized Ab against hPD-L1, and GF1757 is a humanized Ab against hPD-L2. The secondary antibody utilized was PE-goat anti-human IgG. All values represent mean fluorescence intensity (GMFI), as detected by FACs analysis.
In general terms: Flow cytometry measures light scatter and fluorescence of single cells or particles in a stream.

For test [2], the target named is T1, human PD-L1 (hPD-L1) expressed on …. In words: FACS, hPD-L1 300.19 cells, assay 2, Ab 1 ug/ml. The method, then: as §1
For test [3] the target is unchanged. In words: FACS, hPD-L1 300.19 cells, assay 1, Ab 0.1 ug/ml. The method, then: as §1
Test [4] has the same target. Kind of test: FACS, hPD-L1 300.19 cells, assay 2, Ab 0.1 ug/ml. The method, then: as §1
For test [5] the target is unchanged. Kind of test: FACS, hPD-L1 300.19 cells, assay 1, Ab 0.01 ug/ml. The method, then: as §1
Test [6] shares this target. Kind of test: FACS, hPD-L1 300.19 cells, assay 2, Ab 0.01 ug/ml. The procedure: as §1
For test [7] the target is unchanged. In words: FACS, hPD-L1 300.19 cells, assay 1, Ab approx 10 ug/ml. The method, then:
as §1

Test [8] has the same target. Kind of test: FACS, hPD-L1 300.19 cells, assay 2, Ab approx 10 ug/ml. The procedure:
as §1

The target is the same in test [9]. In words: competition FACS, hPD-L1 300.19 cells, signal = bound hPD-1-mIgG2a, Ab 1 ug/ml. The method, then:
(§2) A competitive FACS analysis was performed to characterize the inhibition of hPD1 binding to hPD-L1 by the soluble huPD-L1 antibodies of the present invention. […] In this assay, 50,000 cells expressing hPD-L1 were pre-incubated with the huPD-L1 or control antibodies for 30 minutes at the following concentrations: 10 μg/ml, 1 μg/ml, 0.1 μg/ml and 0.01 μg/ml. […] After 30 minutes of incubation, the cells were washed twice and then analyzed by FACS. MFI values from Table 20 are used to generate a percent inhibition of hPD1 binding with hPD-L1+ cells for FIG. 4.

For test [10] the target is unchanged. In words: competition FACS, hPD-L1 300.19 cells, signal = bound hPD-1-mIgG2a, Ab 0.1 ug/ml. The method, then: as §2
Test [11] shares this target. Kind of test: competition FACS, hPD-L1 300.19 cells, signal = bound hPD-1-mIgG2a, Ab 0.01 ug/ml. The method, then: as §2
For test [12] the target is unchanged. Kind of test: competition FACS, hPD-L1 300.19 cells, signal = bound hPD-1-mIgG2a, Ab approx 10 ug/ml. The method, then: as §2

T1 sequence (Q9NZQ7 19-290): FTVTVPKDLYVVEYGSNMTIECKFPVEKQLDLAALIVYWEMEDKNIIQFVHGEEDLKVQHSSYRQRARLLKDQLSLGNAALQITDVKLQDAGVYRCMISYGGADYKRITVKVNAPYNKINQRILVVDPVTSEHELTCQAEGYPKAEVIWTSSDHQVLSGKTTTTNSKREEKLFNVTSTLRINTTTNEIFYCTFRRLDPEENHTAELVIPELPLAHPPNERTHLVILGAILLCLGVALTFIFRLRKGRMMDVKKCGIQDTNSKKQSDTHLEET

B1: Ab-50 (antibody, V domains shown)
VH: QVQLVQSGGEVKKPGASVKVSCKASGYTLSSHGITWVRQAPGQGLEWMGWISAHNGHASNAQKVEDRVTMTTDTSTNTAYMELRSLTADDTAVYYCARVHAALYYGMDVWGQGTLVTVSS
VL: QSVLTQPPSVSVAPGQTARITCGGNNIGSKGVHWYQQKPGQAPVLVVYDDSDRPSGIPERFSGSNSGNTATLTISRVEAGDEADYYCQVWDSSSDHWVFGGGTKLTVL
notes: also called huPD-L1 Ab # 50
For the molecule B1, the “Cells PE-A Mean” value in test [1] came out at 42100 MFI; in [2], 63400 MFI; in test [3], 15100 MFI; in test [4], 28700 MFI; in [5], 2690 MFI; in test [6], 5200 MFI. The “Cells PE-A Mean” value is 49400 MFI in test [7] and 69600 MFI in test [8]. The “Cells PE-A Mean (bound hPD-1-mIgG2a)” value in test [9] was 156 MFI; in test [10], 2800 MFI; in [11], 12500 MFI; in test [12], 207 MFI.

B2: Ab-31 (antibody, V domains shown)
VH: QVQLVQSGAEVKKPGATVKVSCKVFGDTFRGLYIHWVRQAPGQGLEWMGGIIPIFGTANYAQKFQGRVTITTDESTSTAYMELSSLRSEDTAVYYCASGLRWGIWGWFDPWGQGTLVTVSS
VL: EIVLTQSPATLSLSPGERATLSCRASQSIGNSLAWYQQKPGQAPRLLMYGASSRATGIPDRFSGSGAGTDFTLTISSLEPEDFATYYCQQHTIPTFSFGPGTKVEVK
notes: also called huPD-L1 Ab # 31
As to B2, the “Cells PE-A Mean” value in [1] was 44200 MFI; in [2], 71000 MFI; in test [3] it was 12500 MFI; in test [4] it was 37700 MFI; in test [5], 2830 MFI; in [6], 6830 MFI. Moreover, the “Cells PE-A Mean” value in test [7] is 53800 MFI; in test [8] it was 76400 MFI. For the same molecule, the “Cells PE-A Mean (bound hPD-1-mIgG2a)” value in test [9] was found to be 623 MFI; in test [10] it was 7930 MFI; in test [11], 11900 MFI; in [12], 157 MFI.

B3: Ab-42 (antibody, V domains shown)
VH: QVQLVQSGAEVKKPGSSVKVSCKASGGTFSSYAISWVRQAPGQGLEWMGGIIPIFGTANYAQKFQGRVTITADKSTSTAYMELSSLRSEDTAVYYCARGRQMFGAGIDFWGPGTLVTVSS
VL: NFMLTQPHSVSESPGKTVTISCTRSSGSIDSNYVQWYQQRPGSAPTTVIYEDNQRPSGVPDRFSGSIDSSSNSASLTISGLKTEDEADYYCQSYDSNNRHVIFGGGTKLTVL
notes: also called huPD-L1 Ab # 42; mAb42
As for B3, the “Cells PE-A Mean” value amounted to 40900 MFI in [1]; 72100 MFI in [2]; 14900 MFI in test [3]; 49400 MFI in test [4]; 2080 MFI in test [5]; 11600 MFI in test [6]. The “Cells PE-A Mean” value was determined as 53600 MFI in test [7] and 76800 MFI in test [8]. Also, the “Cells PE-A Mean (bound hPD-1-mIgG2a)” value in test [9] was 142 MFI; in [10] it was 3140 MFI; in [11], 11800 MFI; in [12], 139 MFI.

B4: Ab-52 (antibody, V domains shown)
VH: QVQLQESGGGVVQPGRSLRLSCSASGFTFSRHGMHWVRQAPGKGLEWVAVISHDGSVKYYADSMKGRFSISRDNSNNTLYLQMDSLRADDTAVYYCARGLSYQVSGWFDPWGQGTLVTVSS
VL: NFMLTQPHSVSESPGKTVTISCTRSSGSIASNYVQWYQQRPGSAPTTVIYEDNQRPSGVPDRFSGSIDSSSNSASLTISGLKTEDEADYYCQSYDSTTPSVFGGGTKLTVL
notes: also called huPD-L1 Ab # 52
In the case of B4, the “Cells PE-A Mean” value in [1] is 21400 MFI; in test [2] it was 34900 MFI; in test [3], 5610 MFI; in test [4] it was 14700 MFI; in test [5], 1070 MFI; in test [6] it was 2690 MFI. Moreover, the “Cells PE-A Mean” value in [7] came out at 28400 MFI; in test [8] it was 37200 MFI. Besides, the “Cells PE-A Mean (bound hPD-1-mIgG2a)” value in test [9] was 2070 MFI; in test [10], 6750 MFI; in test [11], 11900 MFI; in test [12] it was 380 MFI.

B5: Ab-14 (antibody, V domains shown)
VH: QVQLVQSGAEVKKPGASVKVSCKASGYTFTSYGISWVRQAPGQGLEWMGWISAYNGNTNYAQKLQGRVTMTTDTSTSTAYMELRSLRSDDTAVYYCARALPSGTILVGGWFDPWGQGTLVTVSS
VL: NFMLTQPHSVSESPGKTVTISCTRSSGNIASNYVQWYQQRPGSAPTTVIYEDNQRPSGVPDRFSGSIDSSSNSASLTISGLKTEDEADYYCQSYDSSNLWVFGGGTKLTVL
notes: also called huPD-L1 Ab # 14
As for B5, the “Cells PE-A Mean” value in [1] was 23300 MFI; in test [2], 53200 MFI; in [3] it was 8100 MFI; in test [4], 17700 MFI; in test [5], 1650 MFI; in [6], 3700 MFI. In addition, the “Cells PE-A Mean” value is 41500 MFI in [7] and 77900 MFI in test [8]. In addition, the “Cells PE-A Mean (bound hPD-1-mIgG2a)” value in test [9] came to 12000 MFI; in test [10], 14900 MFI; in [11], 15800 MFI; in test [12] it was 696 MFI.

B6: Ab-30 (antibody, V domains shown)
VH: QVQLVQSGGSVVRPGESLRLSCVASGFIFDNYDMSWVRQVPGKGLEWVSRVNWNGGSTTYADAVKGRFTISRDNTKNSLYLQMNNLRAEDTAVYYCVREFVGAYDLWGQGTTVTVSS
VL: QSALTQPASVSGSPGQSITISCTGTSSDVGGYNYVSWYQQHPGKAPKLMIYDVSNRPSGVSNRFSGSKSGNTASLTISGLQAEDEADYYCSSYTSSTLPFGGGTKLTVL
notes: also called huPD-L1 Ab # 30
As for B6, the “Cells PE-A Mean” value is 37500 MFI in test [1]; 61200 MFI in test [2]; 17500 MFI in [3]; 39100 MFI in test [4]; 3510 MFI in [5]; 7720 MFI in test [6]. For the same molecule, the “Cells PE-A Mean” value is 47600 MFI in [7] and 67300 MFI in test [8]. In addition, the “Cells PE-A Mean (bound hPD-1-mIgG2a)” value in test [9] worked out at 661 MFI; in test [10], 4780 MFI; in test [11], 11600 MFI; in test [12], 244 MFI.

B7: Ab-55 (antibody, V domains shown)
VH: QVQLVQSGAEVKKPGASVKVSCKASGYTFTSYGISWVRQAPGQGLEWMGWTSPHNGLTAFAQILEGRVTMTTDTSTNTAYMELRNLTFDDTAVYFCAKVHPVFSYALDVWGQGTLVTVSS
VL: NFMLTQPHSVSESPGKTVTISCTRSSGSIASNYVQWYQQRPGSSPTTVIYEDNQRPSGVPDRFSGSIDTSSNSASLTISGLKTKDEADYYCQSYDGITVIFGGGTKLTVL
notes: also called huPD-L1 Ab # 55
For the molecule B7, the “Cells PE-A Mean” value in test [1] was 9650 MFI; in test [2] it was 26500 MFI; in test [3], 2300 MFI; in [4] it was 8910 MFI; in [5] it was 543 MFI; in test [6] it was 1760 MFI. Also, the “Cells PE-A Mean” value in test [7] worked out at 24400 MFI; in test [8], 42400 MFI. In addition, the “Cells PE-A Mean (bound hPD-1-mIgG2a)” value turned out to be 3620 MFI in [9], 9140 MFI in test [10], 12900 MFI in [11] and 150 MFI in test [12].
